Measurements reported in the DeepSol protein solubility set.

Experiment: soluble on expression in E. coli; label from the status in PepcDB or PDB records

Sequence | soluble on expression in E. coli
MRETKEWRGTTSTSRVFVQKGYQLSDELALRKVQVLERRYGGMQLAHRAATVIQRAWREYCIMKQWMVIRHKHDTIPDHLDARCGVSNSQRNELSLTSRYATSLSAQLRIDRAARSTTLDRSPPSPAPPVLVNLQNSNMIDSLMSPRLGNRRFGAAASRCAPAAAELTSTEVWLPRPSLVNHNPAHSNSLPRLQLLTAWGFVKNSPDSLASLLFGRRGLSKSMIGEYIGTLHSPYHSLVLKYFTALIDIRGLEVDVALRKAMQFFILPKEAEKIDRIIQAFALHYSKSNPKRTSHYRGGWDTIHLLSFAIIMLNTDLHSPNVKQRMTQADFVKNLRGQDKISGEKNGEDIDRKTLEGIYDRIKKDELKAGDDHVAQVQRVDRAIVGKDKPRLTETPRRLVCYCRLQQVSDPTKRQSSSARERDVFLFNDMIVVAKGVRRGSTSMAGCTYTLKQWTLLLGAHVTEFQRGQYEFGLTITCPNKDKIHFNARNFEDRCHFVADVTESIREATEMEQVRLEMEMEQHTTTTIRPDNQRDSGLPDMDESMKLSNGSNSSAGSSNSSTNGVNNSSFRRLSFNSLDSGVVEEHLDAC | not soluble
MGSDKIHHHHHHMGIDELYKKEFGIVAGVDEAGRGCLAGPVVAAAVVLEKEIEGINDSKQLSPAKRERLLDEIMEKAAVGIGIASPEEIDLYNIFNATKLAMNRALENLSVKPSFVLVDGKGIELSVPGTCLVKGDQKSKLIGAASIVAKVFRDRLMSEFHRMYPQFSFHKHKGYATKEHLNEIRKNGVLPIHRLSFEPVLELLTDDLLREFFEKGLISENRFERILNLLGARKSVVFRKERTNHNLPLF | soluble
QVRQSPQSLTVWEGETTILNCSYENSAFDYFPWYQQFPGEGPALLIAIRSVSDKKEDGRFTIFFNKREKKLSLHITDSQPGDSATYFCAATGANTGKLTFGHGTILRVHPNIQNPDPAVYQLRDSKSSDKSVCLFTDFDSQTNVSQSKDSDVYITDATVLDMRSMDFKSNSAVAWSNKSDFACANAFNNSIIPEDTFFPS | soluble
MKVLILGGGYTGQRLAQLLAAQSIPVLATTRSGQWPLDEPCVTFDAGSTPLLLPDPAALAGVTHVLSTIPPLGDGGDPVLSTLLPTLQYLSLQWCGYLSTTGVYGDTQGAWVDEDSPLQSTNRRSQQRIAIEAQWLASGLPAHIFRLPGIYGPGRSSFDRLRRGDNQRLLKPGHVFCRIHVDDIAAALWASLQQPNPGRIYNVSDDFPCEPALLIEAAAQLMGVELPPPLPVDAVELSPMAASFWSECRRVRNDRLKQELGVQLRYPSYREGLAAIWAAELEHHHHHH | not soluble
MGSDKIHHHHHHMFQLHHKLAADSFLVGDFPLSTCRLINDCQFPWLILVPRVSGIKELYELSEADQTQFLRESSWLSSQLAKTFQADKMNVAALGNQVPQLHFHHIVRYQNDMQWPNPVWGIPAVPYSKEVLAQMQQTLMMALRGHHQMPFDWQM | not soluble
GTEDTVIKVSVLRGPSVIAFADWLENPPIIDNKKVQVKVVDSPDLAQALLIKQETDIAVLPMINAANLYNKGIKIKLAGCPIWGTLYLVEKTPLKEPALYVFGNGTTPDILTRYYLGRQRLDYPLNYAFNTAGEITQGILAGKVNRAVLGEPFLSIALRKDSSLRITADLNHLTDNDTLGFAQTAVVYTPTMEKYRIAFEDALRASCQKAVRYPKETIHSLEEHGIFAQGALTPKSIERCKIYYLSAIEAKDAVMGFLRLIEQYEPKAVGGRLPDAGFIPEKQ | soluble
MRGKAMNIQRFIEKRKARGLSQSELAKGICTQVTVSRFEKNGQVPTLKILIQLCNRLELPLGELFPRVGIKQPEILEKMEEAEFFLITSEHDQLQTILKNIPFDEIKDSQLLLEYYYLQGFVMIFQNASLMDCLFTFEKLLFEEQKYTSDIYRLLAFTGIGMAYAKEGEIEKAEFYFNKVFKEIYLYTIQSMEDTWRVLNVVFHCGVFYAEKGDLETSDALLEYAISICSDNHVTYYLARAAFQLAKNALAEEKPQEQILELLQDARAYAKINKNRILLEAIQTLKETILSKGN | not soluble
MGSDKIHHHHHHMVPARHCHVAVFDQAIVALDIRRSRYFLYDAACARDFADHYLDFKPIDAPRALKPLIADRILVAESPAAARSRIADYRGWSFDAFDSGIWGSRVLGKRDAARFEWLPFWRIVRSAASLKMRGFHALAALDQLDARGAPARGDDASHTVERLLRASIWSPFRITCVQMSLALATHLRRQNVPAQLVIGVRPMPFVAHAWVEVDGRVCGDEPDLKKSYGEIYRTPRCDASAAPFGLAA | not soluble
MCDCLSIILLVKMKKIYLKFVDFWDGFDTISNFIVDALSIQYEVVLSNEPDYLFYSCFGTSHLEYDCIKIMFIGENIVPDFNVCDYAIGFNYIDFGDRYLRLPLYAIYDGFSNLQNKKIDVNKALDRKFCSIVVSNNKWADPIRETFFKLLSSYKKVDSGGRAWNNIGGPVDNKLDFISQYKFNIAFENSRVLGYTTEKIMEPMQVNSIPVYWGNPLVGKDFNVDSFVNAHDFDSLERLVEYIIELDSSKDKYLEMLEKPWLLDKTYLDWKQLLLNFINNIMMKSYKDAKYLVNYGHAGKYRNEQRFWGRCERKFKLQRIIEYYSQLFDRKLEHHHHHH | not soluble
MTTSAMTAPDTRRQLQHVETLRRFLRGDSCFVHDLRGMMDYHDGLSRRQQRAFCRASRVLTDPEPIQSEAEGENKQFTEHTHKVVSFFIKSVFVFPYLVLPNCCQVSVDRSRVPETGGRWLLEHHHHHH | not soluble
MGHHHHHHSHMANPKLLGLELSEAEAIGADSARFEELLLQASKELQQAQTTRPESTQIQPQPGFCIKTNSSEGKVFINICHSPSIPPPADVTEEELLQMLEEDQAGFRIPMSLGEPHAELDAKGQGCTAYDVAVNSDFYRRMQNSDFLRELVITIAREGLEDKYNLQLNPEWRMMKNRPFMGSISQQNIRSEQRPRIQELGDLYTPAPGRAESGPEKPHLNLWLEAPDLLLAEIDLPKLDGALGLSLEIGENRLVMGGPQQLYHLDAYIPLQINSHESKAAFHRKRKQLMVAMPLLLVPS | not soluble
MPHFNFDYQEFLMMVQHLKRRPLSRYLKDFKHSQTHCAHCRKLLDRITLVRDGKIVNKIEISRLDTLLDEKGWQTEQQSWAALCRFCGDLHCKTQSDFFDIIGFKKFLFEQTEMSPGTVREYVVRLRRLGNHLHEQNISLDQLQDGFLDEILAPWLPTTSTNNYRIALRKYQHYQRQTCTGLVQKSSSLPASDIY | not soluble
MTDTHAHLDFLEPEELAEAAAHLPKLRAVLTLGVDPGRWEKTLSLAQGNVYAAVGLHPTSAHLLSPRWRRPFRHYARSERVRAIGETGLDYYWTPETRAVQLKALDFQAALAEALGLPLVLHVRSKDGKAEEDLAAWLLLHRPKRAVLHAFSGHPALEAAGLEVGAYFSFAGPLTYRKNAALREAAARLPEDRLLVETDTPFLPPEPFRGKRNRPHYVRFTLEKLAEARGLPFAEAEALTDRNARVCFGWP | soluble
MTQHSRDTPQFYLTAPSPCPYLPGRHERKVFTHLVGNKAGELNDLLTHGGFRRSQSIAYRPACDQCRACVSVRVIANEFKPSRNQRKLLARNADIVGEQRNPVPTSEQYSVFRAYLDQRHRYGGMADMTVLDYAMMVEDSHVQTRMIEYRKRTPDTGITGRGGELIAAALTDVLGDGLSMVYSFYEPNEQHRSLGTFMILDHIARARRLGLPYVYLGYWIEGSKKMDYKGRYLPQQRLAPSGWLRIDASGEMQPEPQDLEHHHHHH | not soluble
MAHVAEWKKKEVEELAKLIKSYPVIALVDVSSMPAYPLSQMRRLIRENGGLLRVSRNTLIELAIKKAAKELGKPELEKLVEYIDRGAGILVTNMNPFKLYKFLQQNRQPAPAKPGAVVPKDVVVPAGPTPLAPGPIVGQMQALGIPARIEKGKVTIQKDTTVLKAGEVITPELANILNALGIQPLEVGLDVLAVYEDGIVYTPDVLAIDEQEYIDMLQKAYMHAFNLAVNIAYPTPETIEAIIQKAFLNAKTVAIEAGYITKETIQDIIGRAFRAMLLLAQQLP | soluble
MGSDKIHHHHHHMNIEDTLLKQDVWRFIDNTTINPAFDAIQSFATDDTLCRSVGARMAPSTVRGWVHEKTVSLGIQDSKLPDIDKGIAFLQEQGYRVVVRNSGGLAVVLDSGVLNLSMVLPDAERGIAIERGYETMFTLIKDMFVDCNEVIEAKEIEDSYCPGSYDLSIQGEKFAGISQRRMAKGVAVQIYLAIDGDQTTRSELIRDFYTISGKAKQTKYTFPDVNPNVMGSLSDLMKNDISLNGTLVRLFNSLRHYAGELVSGTLTSEELDLFPAYYERLIARNDKVLT | not soluble
